According to patent publication US20190241662A1 (ADAGENE, published 2019):

Assays:
[1] = target: T1, full-length human CTLA4 expressed on cells (human, UniProt P16410 36-223); experiment: flow cytometry, transfected HEK293F cells, antibody concentration not printed [Cont.]
T1 construct: whole, on cells; also called HEK293F/hCTLA-4 cells; HEK293F/hCTLA4 cells
T1 sequence (looked up): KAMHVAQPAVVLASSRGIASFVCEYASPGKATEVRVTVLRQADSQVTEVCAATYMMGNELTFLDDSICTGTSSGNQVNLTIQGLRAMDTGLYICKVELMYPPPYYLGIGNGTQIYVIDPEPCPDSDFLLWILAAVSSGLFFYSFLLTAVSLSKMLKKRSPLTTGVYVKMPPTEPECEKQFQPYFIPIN
Procedure: (§1) The affinities of the antibodies were also assessed against human and mouse CTLA4 transiently expressed on the surface of HEK293F cells (FIG. 2). Briefly, HEK293F cells were transfected with a plasmid expressing full-length human, monkey or mouse CTLA4 from a bicistronic IRES vector also encoding EGFP, and EGFP expression was used to identify the transfected cells. After 48 hours, the mammalian cell suspension (2×10⁵/well) was transferred to an Eppendorf tube, centrifuged, the supernatant was discarded, the cells were resuspended with 1 mL PBSA (to a density is 4×10⁶ cells/mL), and added to a 96 well plate. […] The cells were then washed once prior to analysis by flow cytometry (Beckman® CytoFlex).

[2] = target: T2, full-length mouse CTLA4 expressed on HEK293F cells (mouse, UniProt P09793 36-223); experiment: as above
T2 construct: whole, on cells
Procedure: as §1

[3] = target: T3, human PD1 on HEK293F cells (human, UniProt Q15116 25-288); experiment: flow cytometry, transfected HEK293F cells, 100 nM antibody
T3 construct: whole, on cells
T3 sequence (Q15116 25-288): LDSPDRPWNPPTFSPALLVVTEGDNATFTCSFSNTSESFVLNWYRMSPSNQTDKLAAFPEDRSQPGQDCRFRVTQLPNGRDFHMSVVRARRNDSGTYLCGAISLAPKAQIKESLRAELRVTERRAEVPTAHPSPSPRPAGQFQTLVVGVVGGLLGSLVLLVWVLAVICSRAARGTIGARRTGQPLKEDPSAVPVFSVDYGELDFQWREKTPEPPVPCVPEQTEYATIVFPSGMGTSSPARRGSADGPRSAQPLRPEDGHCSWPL
Procedure: (§2) Antibody selectivity was next examined. Human CTLA4, PD1, LAG3, Tim3, B7H3, CD95, TNFR1, OX40, CD40, PD-L1, BLTA, VISTA, PDL2, ICOS and B7H4 were transiently overexpressed on the surface of HEK293F cells. Transfected cells were washed in pre-chilled 1×PBSA buffer (1.76 mM KH2PO4, 10.14 mM Na2HPO4.12H2O, 2.68 mM KCl, 136.89 mM NaCl and 1% BSA), then incubated with 100 nM test antibodies for 1 hour on ice. Cells were washed once with staining buffer, and Alexa Fluor® 647 conjugated mouse anti-human FC antibodies were added and incubated for 30 minutes on ice, protected from light. Samples were washed once with staining buffer prior to analysis by flow cytometry.

[4] = target: T4, human LAG3 on HEK293F cells (human, UniProt P18627 23-525); experiment: as above
T4 construct: whole, on cells
T4 sequence (looked up): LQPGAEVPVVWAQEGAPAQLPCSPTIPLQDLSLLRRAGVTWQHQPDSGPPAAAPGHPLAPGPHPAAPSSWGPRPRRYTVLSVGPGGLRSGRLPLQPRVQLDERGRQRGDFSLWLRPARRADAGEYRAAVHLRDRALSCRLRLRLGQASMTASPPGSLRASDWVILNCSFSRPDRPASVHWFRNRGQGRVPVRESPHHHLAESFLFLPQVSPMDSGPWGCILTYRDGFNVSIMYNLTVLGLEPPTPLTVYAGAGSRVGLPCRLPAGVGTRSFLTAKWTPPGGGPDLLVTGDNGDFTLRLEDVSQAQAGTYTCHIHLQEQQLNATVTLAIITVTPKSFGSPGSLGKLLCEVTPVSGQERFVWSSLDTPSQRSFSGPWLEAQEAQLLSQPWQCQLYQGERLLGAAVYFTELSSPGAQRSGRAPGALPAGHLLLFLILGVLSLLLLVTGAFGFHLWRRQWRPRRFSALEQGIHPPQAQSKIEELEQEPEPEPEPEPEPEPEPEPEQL
Procedure: as §2

[5] = target: T5, human CD95 on HEK293F cells (human, UniProt P25445 26-335); experiment: as above
T5 construct: whole, on cells
T5 sequence (looked up): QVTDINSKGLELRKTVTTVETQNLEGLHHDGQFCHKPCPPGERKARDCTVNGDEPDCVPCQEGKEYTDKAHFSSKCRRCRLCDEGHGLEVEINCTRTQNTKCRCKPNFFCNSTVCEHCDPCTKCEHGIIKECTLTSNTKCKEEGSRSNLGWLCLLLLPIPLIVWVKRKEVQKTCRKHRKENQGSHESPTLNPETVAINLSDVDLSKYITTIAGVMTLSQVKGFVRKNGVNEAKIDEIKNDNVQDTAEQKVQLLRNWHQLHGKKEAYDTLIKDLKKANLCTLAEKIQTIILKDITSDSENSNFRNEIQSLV
Procedure: as §2

[6] = target: T6, human OX40 on HEK293F cells (human, UniProt P43489 29-277); experiment: as above
T6 construct: whole, on cells
T6 sequence (looked up): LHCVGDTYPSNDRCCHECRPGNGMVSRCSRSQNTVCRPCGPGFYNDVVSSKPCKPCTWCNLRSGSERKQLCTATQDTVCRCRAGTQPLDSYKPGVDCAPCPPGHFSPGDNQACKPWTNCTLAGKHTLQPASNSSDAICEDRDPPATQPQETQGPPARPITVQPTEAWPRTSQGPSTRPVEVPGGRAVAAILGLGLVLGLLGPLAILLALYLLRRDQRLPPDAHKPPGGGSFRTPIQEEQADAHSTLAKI
Procedure: as §2

[7] = target: T1, full-length human CTLA4 expressed on …; experiment: as above
Procedure: as §2

[8] = target: T1, full-length human CTLA4 expressed on …; experiment: flow cytometry, transfected HEK293F cells, antibody concentration not given
Procedure: as §1

[9] = target: T2, full-length mouse CTLA4 expressed on …; experiment: as above
Procedure: as §1

[10] = target: T6, human OX40 on HEK293F cells; experiment: flow cytometry, transfected HEK293F cells [Cont.]
Procedure: as §2

B1: TY21687 (antibody, V domains shown)
VH: EVQLVESGGGLVQPGGSLRLSCAASGFTFSGYAIHWVRQAPGKGLEWIGIISPSGGGTKYAQKFQGRVTISRDNSKNTLYLQLNSLRAEDTAVYYCARHPFAYWGQGTLVTVSS
VL: DIQLTQSPSSLSASVGDRVTITCRASQSVDFYGISFLDWYQQKPGKAPKLLIYDASNRATGIPSRFSGSGSGTDFTLTISSLQPEDFATYYCQQYVSSPPEYTFGQGTKVEIK
notes: human IgG1 (hIgG1) from Fab hit B15700
[1]
  % of cells in upper right quadrant (Q2): 50.4
  Mean: 433000
[2]
  % of cells in upper right quadrant (Q2): 33.4
  Mean: 633000

B2: TY21585 (antibody, V domains shown)
VH: EVQLVESGGGLVQPGGSLRLSCAASGFTFSDYAIHWVRQAPGKGLEWIGIISPSSGSTNYAQKFQGRVTISRDNSKNTLYLQLNSLRAEDTAVYYCARDIHSGSSGYYYGFDVWGQGTLVTVSS
VL: DIQLTQSPSSLSASVGDRVTITCRASESVDFFGISFLAWYQQKPGKAPKLLIYDASNRATGIPSRFSGSGSGTDFTLTISSLQPEDFATYYCQHYTSSPPVYTFGQGTKVEIK
notes: human IgG1 (hIgG1) from Fab hit B15709
[3]
  % of cells in upper right quadrant (Q2): 1.33%
[4]
  % of cells in upper right quadrant (Q2): 0.66%
[5]
  % of cells in upper right quadrant (Q2): 0.23
  Mean: 6720
[6]
  % of cells in upper right quadrant (Q2): 0.43
  Mean: 10500
[7]
  % of cells in upper right quadrant (Q2): 30.4%
[8]
  % of cells in upper right quadrant (Q2): 25.7%
[9]
  % of cells in upper right quadrant (Q2): 30.8%

B3: TY21591 (antibody, V domains shown)
VH: EVQLVESGGGLVQPGGSLRLSCAASGFSLSTGGVAVSWIRQAPGKGLEWIGEIYHSGSTYYSPSLKSRVTISRDNSKNTLYLQLNSLRAEDTAVYYCARRIATATYFDYWGQGTLVTVSS
VL: DIQLTQSPSSLSASVGDRVTITCRASQTVFSRYLAWYQQKPGKAPKLLIYDASNRATGIPSRFSGSGSGTDFTLTISSLQPEDFATYYCQQSYYWPPWTFGQGTKVEIK
notes: human IgG1 (hIgG1) from Fab hit B15756
[10]
  binding result: no binding (tested: 100 nM)
